Data on 16 sequences can be found in the Immune Epitope Database (IEDB).

One may read the IC50 as the concentration at which inhibition is half-maximal.

Bounds are passed on as bounds.

Among the targets are HLA-A*02:05; HLA-B*07:02; HLA-B*35:01; HLA-B*52:01; HLA-B*18:01; HLA-B*44:02; HLA-B*44:03; HLA-B*58:01; HLA-B*27:05.
What all share (assay): IEDB peptide-MHC binding, purified MHC/competitive/radioactivity; ≥ and ≤ were set here for values at or beyond the usual limits of such assays
What all share (settings): source organism: Hepatitis delta virus

Turning to QGFPWDLLF, the IC50 with HLA-A*02:05 was 3.41 µM; with HLA-B*07:02, no less than 50 µM; with HLA-B*35:01 it was 0.213 µM; with HLA-B*52:01, 0.135 µM.

Consider DDNPWLGNI, for which the values for the IC50 with HLA-B*18:01, in the assay with HLA-B*44:02 and in the assay with HLA-B*44:03 were no less than 50 µM, 35.1 µM and 9.19 µM, respectively.

In the case of QGFPWDILF, the concentration for half-maximal inhibition (IC50) was found to be 9.63 µM with HLA-A*02:05, 44.3 µM with HLA-B*07:02, 0.118 µM in the assay with HLA-B*35:01 and 0.018 µM in the assay with HLA-B*52:01.

As to NQGIPWDILF, the 50% inhibitory concentration (IC50) in the assay with HLA-A*02:05 was 7.17 µM; with HLA-B*07:02 it was no less than 50 µM; with HLA-B*35:01 it was no less than 50 µM; with HLA-B*52:01, 1.47 µM.

Regarding FPWDILFPS, the IC50 in the assay with HLA-A*02:05 was 11.7 µM; in the assay with HLA-B*07:02, 13.5 µM; with HLA-B*35:01, 0.027 µM.

Regarding FPWDLLFPA, the IC50 with HLA-A*02:05 is 4.16 µM; with HLA-B*07:02, 0.467 µM; in the assay with HLA-B*35:01, 0.018 µM.

As to FPWDMLFPA, the IC50 was found to be 5.74 µM with HLA-A*02:05, 0.43 µM in the assay with HLA-B*07:02 and 0.0017 µM in the assay with HLA-B*35:01.

On to DRGFPWDILF, for which the half-inhibitory concentration (IC50) in the assay with HLA-A*02:05 was no less than 50 µM; with HLA-B*07:02, no less than 50 µM; in the assay with HLA-B*35:01 it was no less than 50 µM; with HLA-B*52:01 it was 4.68 µM.

As for TGRQGFPW, the IC50 with HLA-B*58:01 amounted to 1.55 µM.

Consider RGSQGFPW, for which the half-maximal inhibitory concentration (IC50) with HLA-B*58:01 was 0.014 µM.

Take RGDREFPW: the IC50 with HLA-B*58:01 turned out to be 0.195 µM.

In the case of EENLWLGNI, the 50% inhibitory concentration (IC50) with HLA-B*18:01 was found to be 1.99 µM; with HLA-B*44:02 it was 0.468 µM; with HLA-B*44:03, 0.217 µM.

RRKALENKS: the IC50 with HLA-B*27:05 was found to be 13.6 µM.

On to RRKALENKR, for which the IC50 with HLA-B*27:05 amounted to 0.109 µM.

Regarding SQGFPWDILF, the IC50 with HLA-A*02:05 was 3.12 µM; with HLA-B*07:02 it was no less than 50 µM; with HLA-B*35:01 it was no less than 50 µM; in the assay with HLA-B*52:01, 3.66 µM.

FPWDILFPA: the half-maximal inhibitory concentration (IC50) came to 9.37 µM with HLA-A*02:05, 0.096 µM in the assay with HLA-B*07:02 and 0.0057 µM in the assay with HLA-B*35:01.
